Key:
Assay in all cases: pull-down binding Z-score (relative to library population); higher = stronger binding
Conditions in all cases: RNA library: Library-2
[1] = tested on: TO-3-N3-2 (biotin conjugate)
Procedure, shortened: (§1)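 The RNA library, end-labelled with Cy5 or Cy3, was heat-folded in phosphate/NaCl/KCl buffer, and 1 μg was incubated at 25 °C for 60 min with streptavidin beads carrying 100 pmol of biotin-conjugated small molecule. Hot SDS released the bound RNA, which was then hybridised to a DNA barcode microarray for 20 h at 55.5 °C. For scoring binding, signal from beads alone was subtracted, replicate barcoded probes were averaged after discarding the highest and lowest, and each value was turned into a Z-score from the library mean and standard deviation.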

[2] = tested on: TO-3-N3 (biotin conjugate)
Procedure, shortened: as §1

[3] = tested on: TO-N3-2 (biotin conjugate)
Procedure, shortened: as §1

TO-N3 (biotin conjugate) = tested on: TO-N3 (biotin conjugate)
Procedure, shortened: as §1

Sequence | pull-down binding Z-score [1] | pull-down binding Z-score [2] | pull-down binding Z-score [3] | pull-down binding Z-score (TO-N3 (biotin conjugate))
UAAUUCUUGGCUUAUGUGGUUAAUAAUUA [DMSMaPseq_invitro_SARS-CoV-2_Motif_139] | -0.0756 | -0.0604 | -0.709 | -0.293
UACAAACUUGUG [DMSMaPseq_invitro_SARS-CoV-2_Motif_398] | -0.609 | -0.625 | -1.04 | -1.02
UACAAUUUGCCUAUGCCAACAGGAAUAGGUUUUUGUA | -0.176 | 0.38 | -1.3 | -0.122
UACAUGUGUUGGUAGCGAUAAUGUUACUGACUUUAAUGCAAUUGCAACAUGUG [DMSMaPseq_invitro_SARS-CoV-2_Multi_49_ComplexLevel_1] | 0.0202 | -0.662 | -0.909 | -0.826
UACCAGACUAUAACACAUAUAAAAAUACGUGUGAUGGUA [DMSMaPseq_invitro_SARS-CoV-2_Motif_221] | -0.385 | -0.929 | -1.24 | -1.03
UACCAGCUGUACUCAACUCAAUUGAGUACAGACACUGGUG [DMSMaPseq_invitro_SARS-CoV-2_Motif_468] | -0.473 | -0.751 | -1.06 | -1.16
UACCAUUUAAUGAUGGUG | -0.21 | 0.115 | -1.03 | -0.0588
UACCGAUGCCAUAGAGGUG [IAV_invivo_PB1_2_Motif_30+IAV_invivo_PB1_2_Motif_30] | -0.0397 | -0.183 | 0.166 | -0.0495
UACCUUUUGCUAUGGGUA | -0.454 | -0.317 | -1.26 | -0.582
UACUAAUAUGUUUACACCACUAAUUCAACCUAUUGGUGCUUUGGACAUAUCAGCAUCUAUAGUAGCUGGUGGUAUUGUAGCUAUCGUAGUA [SHAPE_invivo_SARS-CoV-2_Motif_188] | 0.253 | 0.0327 | 0.354 | 0.303
UACUGGUUCUAUACCUUGUA [SARS-CoV-2-Conserved-Structured-4_Interval-7011-7130_Motif_3] | -0.095 | 0.217 | -0.722 | -0.0242
UACUUUACUCAGAGUA [SHAPE_invitro_SARS-CoV-2_Motif_368] | -0.589 | -1.06 | -1.64 | -1.58
UAGAAUAGACGGUGACAUGGUACCACAUAUAUCACGUCAACGUCUUACUA [SHAPE_invivo_SARS-CoV-2_Motif_261] | -0.164 | -0.605 | -0.953 | -0.562
UAGACAAUUCUAGUCUUACUAUUAAGAAACCUAAUGAAUUAUCUA [SHAPE_invivo_SARS-CoV-2_Motif_135] | -0.287 | -1.02 | -1.41 | -1.27
UAGAGAAAACAACAGAGUUGUUAUUUCUAGUGAUGUUCUUGUUAACAACUAAACGAACAAUGUUUGUUUUUCUUGUUUUAUUGCCACUAGUCUCUA [SHAPE_invitro_SARS-CoV-2_Multi_58_ComplexLevel_1] | -0.215 | -0.989 | -0.78 | -0.976
UAGAGGUACAACAGUACUUUUA | -0.423 | -0.813 | -1.28 | -1.12
UAGAGUGCUAUCUA [SHAPE_invitro_SARS-CoV-2_Motif_352] | -0.553 | -0.809 | -0.86 | -0.957
UAGAUGCUGUAAAUUUACUUACUAAUAUGUUUACACCACUAAUUCAACCUAUUGGUGCUUUGGACAUAUCAGCAUCUA [DMSMaPseq_invitro_SARS-CoV-2_Multi_30_ComplexLevel_1] | -0.0621 | 0.39 | -0.105 | 0.0803
UAGCGUGCCUUUGUAAGCACAAGCUG | 0.0842 | 0.532 | 0.342 | 0.57
UAGCUGGUUUUGCUA [SHAPE_invivo_SARS-CoV-2_Motif_257] | 0.105 | 0.71 | -0.612 | 0.281
UAGCUGUACCCUAUAAUAUGAGAGUUAUACAUUUUGGUGCUGGUUCUGAUAAAGGAGUUGCACCAGGUACAGCUG | -0.121 | -0.371 | -0.588 | -0.515
UAGCUUGUUUUGUGCUUGCUG [SHAPE_invivo_SARS-CoV-2_Motif_507] | -0.546 | 0.134 | -0.699 | -0.0778

Sequence | pull-down binding Z-score [1] | pull-down binding Z-score [2] | pull-down binding Z-score [3] | pull-down binding Z-score (TO-N3 (biotin conjugate))
UAGGCACGGCACUUGUGAAAGAUCAGAAGCUGGUGUUUG | -0.246 | -0.0752 | 0.362 | 0.0405
UAGGUGUUUUAAUGUCUAAUUUAGGCAUGCCUUCUUACUGUACUGGUUACAGAGAAGGCUAUUUGAACUCUA | -0.358 | -0.861 | -0.982 | -0.806
UAGGUGUUUUAAUGUCUAAUUUAGGCAUGCCUUCUUACUGUACUGGUUACAGAGAAGGCUAUUUGAACUCUACUAAUGUCACUAUUGCAACCUA | 0.0583 | -0.221 | -0.12 | -0.0965
UAGGUUUUUCUACAGGUGUUAACCUA [SHAPE_invitro_SARS-CoV-2_Motif_336] | -0.426 | -0.603 | -0.856 | -0.981
UAGUACAACAGGAGUCACCUUUUGUUAUGAUGUCAGCACCACCUGCUCAGUAUGAACUUAAGCAUGGUACAUUUACUUGUGCUA | -0.518 | -0.521 | -0.0314 | -0.168
UAGUACAUUUAUUAGUGAUGAAGUUGCGAGAGACUUGUCACUACAGUUUAAAAGACCAAUAAAUCCUACUG [SHAPE_invivo_SARS-CoV-2_Multi_21_ComplexLevel_1] | 0.312 | 0.561 | 0.172 | 0.716
UAGUAGCUGGUGGUAUUGUAGCUAUCGUAGUAACAUGCCUUGCCUACUA [DMSMaPseq_invitro_SARS-CoV-2_Motif_172] | -0.39 | -0.611 | -1.01 | -0.871
UAGUCCUGUUGCACUACGACAGAUGUCUUGUGCUGCCGGUACUA [DMSMaPseq_invitro_SARS-CoV-2_Motif_226] | -0.381 | -0.727 | -0.478 | -0.821
UAGUGAUGAAGUUGCGAGAGACUUGUCACUA | -0.441 | -0.736 | -0.661 | -0.688
UAGUGCAAAGAAUAGAGCUCGCACCGUAGCUGGUGUCUCUAUCUGUAGUACUA | 0.188 | -0.167 | 0.18 | -0.0718
UAGUGCUAUGCAGACAAUGCUUUUCACUA | -0.341 | -0.863 | -0.838 | -1.14
UAGUGUUACCACAGAAAUUCUACCAGUGUCUAUGACCAAGACAUCAGUAGAUUGUACAAUGUACAUUUGUGGUGAUUCAACUG [DMSMaPseq_invitro_SARS-CoV-2_Multi_72_ComplexLevel_1] | 0.267 | 0.214 | -0.417 | 0.228
UAGUUACACGGUGUUUAAACCGUGUUUGUACUA [SHAPE_invivo_SARS-CoV-2_Motif_139] | -0.496 | -0.83 | -1.11 | -1.15
UAGUUUUAAGGAAUUA | -0.519 | -0.826 | -1.56 | -1.1
UAUAAAGUUUAUUAUGGUAAUGCUUUAGAUCAAGCCAUUUCCAUGUGGGCUCUUAUA | -0.133 | -0.704 | -0.695 | -0.806
UAUAACAAUACUAGAUGGAAUUUCACAGUAUUCACUGAGACUCAUUGAUGCUAUGAUGUUCACAUCUGAUUUGGCUACUAACAAUCUAGUUGUA | -0.178 | -0.682 | -1.1 | -0.688
UAUAAUAUGAGAGUUAUA | -0.355 | -0.11 | -0.882 | -0.233
UAUAUGCCUUAUUUCUUUACUUUAUUGCUACAAUUGUGUACUUUUACUAGAAGUACAAAUUCUAGAAUUAAAGCAUCUA [DMSMaPseq_invitro_SARS-CoV-2_Motif_128] | 0.0402 | -0.237 | -0.67 | -0.348
UAUCCAAACGCAAGCUUCGAUAAUUUUAAGUUUGUAUGUGAUA [DMSMaPseq_invitro_SARS-CoV-2_Motif_115] | 0.145 | 0.127 | -0.609 | -0.225
UAUGAGGUUUAGAAGAGCUUUUGGUGAAUACAGUCAUGUAGUUGCCUUUAAUACUUUACUAUUCCUUAUG | -0.231 | -0.502 | -0.84 | -0.62
UAUGUCUGAAGCAAAAUGUUGGACUGAGACUGACCUUACUAAAGGACCUCAUGAAUUUUGCUCUCAACAUA | -0.402 | 0.0274 | -0.671 | 0.246
UAUUACAGAUCUUUACCAGGAGUUUUCUGUGGUG | -0.388 | -0.624 | -0.779 | -0.72

Sequence | pull-down binding Z-score [1] | pull-down binding Z-score [2] | pull-down binding Z-score [3] | pull-down binding Z-score (TO-N3 (biotin conjugate))
UAUUAUUGCUAUGUCUGCUUUUGCAAUGAUG | -0.373 | -1.09 | -1.18 | -1.29
UAUUGAAAUCAAUA | -0.77 | -0.553 | -1.72 | -0.987
UAUUUCAUAACAGAUGCGCAAACAGGUUCAUCUAAGUGUGUGUGUUCUGUUAUUGAUUUA | -0.188 | -1.06 | -0.209 | -1.16
UAUUUGCCUAUAGAUA | -0.192 | 0.0252 | -0.821 | -0.128
UCAAAAAGAAAUUGA [SHAPE_invivo_SARS-CoV-2_Motif_472] | 0.153 | -0.145 | -0.626 | -0.459
UCAAGACUAUUCAACCAAGGGUUGAAAAGAAAAAGCUUGA [SHAPE_invivo_SARS-CoV-2_Motif_22] | -0.14 | -0.217 | -0.823 | -0.551
UCAAUUAUUAUAAGAAAGUUGA | -0.0592 | 0.154 | -0.425 | 0.0296
UCACACUAAAAAGUGGA | -0.477 | -0.691 | -1.15 | -1.1
UCACACUCAAAGGCGGUGCACCAACAAAGGUUACUUUUGGUGAUGACACUGUGAUAGAAGUGCAAGGUUACAAGAGUGUGAAUAUCACUUUUGAACUUGAUGA [DMSMaPseq_invitro_SARS-CoV-2_Multi_10_ComplexLevel_1] | -0.184 | 0.0984 | 0.257 | 0.304
UCACAGAAUGCUGUAGCCUCAAAGAUUUUGGGACUACCAACUCAAACUGUUGA | -0.271 | -0.508 | -0.508 | -0.673
UCACUCACUGAGUGA [IAV_invivo_NP_5_Motif_1+IAV_invivo_NP_5_Motif_1] | -0.357 | -0.0667 | -1.45 | -0.616
UCAGCUGGUUUUCCAUUUAAUAAAUGGGGUAAGGCUAGA | -0.448 | -0.104 | -0.851 | -0.355
UCAGUUGUAAACAUUCAAAAAGAAAUUGA | 0.407 | 0.0975 | 0.216 | 0.0554
UCAUAACAGAUGCGCAAACAGGUUCAUCUAAGUGUGUGUGUUCUGUUAUUGA [SHAPE_invivo_SARS-CoV-2_Motif_383] | -0.455 | -0.657 | 1.78 | -0.196
UCAUACUGAAAGCGAACUUCAGUGUGA [IAV_invivo_NS1_NEP_8_Motif_9+IAV_invivo_NS1_NEP_8_Motif_9] | -0.294 | -0.0847 | -1.16 | -0.352
UCAUCAGGAGAUGCCACAACUGCUUAUGCUAAUAGUGUUUUUAACAUUUGUCAAGCUGUCACGGCCAAUGUUAAUGCACUUUUAUCUACUGAUGG [DMSMaPseq_invitro_SARS-CoV-2_Multi_45_ComplexLevel_1] | -0.46 | -0.641 | -0.306 | -0.561
UCAUUAAUUGA | -0.664 | -0.712 | -1.65 | -1.27
UCCAAACGCAAGCUUCGAUAAUUUUAAGUUUGUAUGUGA [SHAPE_invivo_SARS-CoV-2_Motif_125] | -0.0327 | -0.388 | -0.684 | -0.589
UCCAAGAACUUGGA | -0.88 | -0.941 | -1.73 | -1.35
UCCACACGCAAGUUGUGGA | -0.579 | -0.719 | -1.4 | -1.18

— the supplement of paper PMC11865577
